From article PMC9352680, “A comprehensive thermodynamic model for RNA binding by the Saccharomyces cerevisiae Pumilio protein PUF4”

T1: PUF4 RNA-binding domain (Saccharomyces cerevisiae, UniProt P25339 537-888)
T1 sequence: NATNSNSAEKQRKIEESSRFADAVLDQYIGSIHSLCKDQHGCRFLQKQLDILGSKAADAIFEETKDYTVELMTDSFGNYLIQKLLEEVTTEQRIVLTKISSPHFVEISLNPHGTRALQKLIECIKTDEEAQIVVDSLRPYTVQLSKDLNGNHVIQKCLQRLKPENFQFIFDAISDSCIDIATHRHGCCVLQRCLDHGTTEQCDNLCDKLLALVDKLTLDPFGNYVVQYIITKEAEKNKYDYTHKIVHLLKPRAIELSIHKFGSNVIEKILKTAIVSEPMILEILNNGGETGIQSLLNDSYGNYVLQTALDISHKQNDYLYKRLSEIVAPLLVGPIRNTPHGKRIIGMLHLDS


Target: T1, PUF4 RNA-binding domain
Assay: Mg; RNA-MaP; 20 mM Na-HEPES pH 7.4, 30 mM KOAc, 0.75 mM MgCl2, 0.1% Tween-20, 5% glycerol, 0.1 mg/mL BSA, 2 mM DTT; 25 C; 0.0125-409.6 nM protein
Details: tags: N-His6-TEV cleaved; C-SNAP kept, Cy3B-labelled; label: tethered on chip by stalled RNA polymerase

| Binder | Kd |
| --- | --- |
| UCUCUUUGUAUUUAGUCUCUU (ssRNA) [Ic_S1_P4E.1_K4.1_C4.1_H4.1_A4.1_[A6T]_F4.1_[T8A]_[A9G]_T4.1] | 25.3 nM |
| UCUCUUUGUAUUUACUCUCUU (ssRNA) [Ic_S1_P4E.1_K4.1_C4.1_H4.1_A4.1_[A6T]_F4.1_[T8A]_[A9C]_T4.1] | 74.9 nM |
| UCUCUUUGUAUUUAUUCUCUU (ssRNA) [Ic_S1_P4E.1_K4.1_C4.1_H4.1_A4.1_[A6T]_F4.1_[T8A]_[A9T]_T4.1] | 31.8 nM |
| UCUCUUUGUAUAGCGUCUCUU (ssRNA) [Ic_S1_P4E.1_K4.1_C4.1_H4.1_A4.1_[T7G]_F4.1_[T8C]_[A9G]_T4.1] | 283 nM |
| UCUCUUUGUAUAGCCUCUCUU (ssRNA) [Ic_S1_P4E.1_K4.1_C4.1_H4.1_A4.1_[T7G]_F4.1_[T8C]_[A9C]_T4.1] | 108 nM |
| UCUCUUUGUAUACGGUCUCUU (ssRNA) [Ic_S1_P4E.1_K4.1_C4.1_H4.1_A4.1_[T7C]_F4.1_[T8G]_[A9G]_T4.1] | 683 nM |
| UCUCUUUGUAUACGCUCUCUU (ssRNA) [Ic_S1_P4E.1_K4.1_C4.1_H4.1_A4.1_[T7C]_F4.1_[T8G]_[A9C]_T4.1] | 367 nM |
| UCUCUUUGUACAUCUCUCUU (ssRNA) [Ib_S1_P3E.1_K3.1_C3.1_H3.1_A3.1_[T5C]_F3.1_[A8C]_T3.1] | 15.9 nM |
| UCUCUUUGUAUACCGUCUCUU (ssRNA) [Ic_S1_P4E.1_K4.1_C4.1_H4.1_A4.1_[T7C]_F4.1_[T8C]_[A9G]_T4.1] | 542 nM |
| UCUCUUUGUAUACCCUCUCUU (ssRNA) [Ic_S1_P4E.1_K4.1_C4.1_H4.1_A4.1_[T7C]_F4.1_[T8C]_[A9C]_T4.1] | 93.4 nM |
| UCUCUUUGUAUACAGUCUCUU (ssRNA) [Ic_S1_P4E.1_K4.1_C4.1_H4.1_A4.1_[T7C]_F4.1_[T8A]_[A9G]_T4.1] | 95.6 nM |
| UCUCUUUGUAUACACUCUCUU (ssRNA) [Ic_S1_P4E.1_K4.1_C4.1_H4.1_A4.1_[T7C]_F4.1_[T8A]_[A9C]_T4.1] | 118 nM |
| UCUCUUUGUAUACAUUCUCUU (ssRNA) [Ic_S1_P4E.1_K4.1_C4.1_H4.1_A4.1_[T7C]_F4.1_[T8A]_[A9T]_T4.1] | 48.5 nM |
| UCUCUUUGUAUAACGUCUCUU (ssRNA) [Ic_S1_P4E.1_K4.1_C4.1_H4.1_A4.1_[T7A]_F4.1_[T8C]_[A9G]_T4.1] | 42.3 nM |
| UCUCUUUGUAUAACCUCUCUU (ssRNA) [Ic_S1_P4E.1_K4.1_C4.1_H4.1_A4.1_[T7A]_F4.1_[T8C]_[A9C]_T4.1] | 62.8 nM |
| UCUCUUUGUAUAACUUCUCUU (ssRNA) [Ic_S1_P4E.1_K4.1_C4.1_H4.1_A4.1_[T7A]_F4.1_[T8C]_[A9T]_T4.1] | 44.2 nM |

| Binder | Kd |
| --- | --- |
| UCUCUUUGUAUAAACUCUCUU (ssRNA) [Ic_S1_P4E.1_K4.1_C4.1_H4.1_A4.1_[T7A]_F4.1_[T8A]_[A9C]_T4.1] | 70 nM |
| UCUCUUUGUAUAAAUUCUCUU (ssRNA) [Ic_S1_P4E.1_K4.1_C4.1_H4.1_A4.1_[T7A]_F4.1_[T8A]_[A9T]_T4.1] | 67.2 nM |
| UCUCUUUGUAAAUCUCUCUU (ssRNA) [Ic_S1_P3E.1_K3.1_C3.1_H3.1_A3.1_[T5A]_F3.1_[A8C]_T3.1] | 343 nM |
| UCUCUUUGUAUAUUAUCUCUU (ssRNA) [Ic_S1_P4E.1_K4.1_C4.1_H4.1_A4.1_F4.1_T4.1] | 0.576 nM |
| UCUCUUUGUAUAUCGAUCUCUU (ssRNA) [Ic_S1_P5E.1_K5.1_C5.1_H5.1_A5.1_[T6A]_[A7T]_F5.1_[T8C]_[T9G]_T5.1] | 38.9 nM |
| UCUCUUUGUACGCAUGUCUCUU (ssRNA) [Ic_S1_P5E.1_K5.1_C5.1_H5.1_A5.1_[T5C]_[T6G]_[A7C]_F5.1_[T8A]_[A10G]_T5.1] | 581 nM |
| UCUCUUUGUACCAACCUCUCUU (ssRNA) [Ic_S1_P5E.1_K5.1_C5.1_H5.1_A5.1_[T5C]_[T6C]_F5.1_[T8A]_[T9C]_[A10C]_T5.1] | 556 nM |
| UCUCUUUGUAACCGCCUCUCUU (ssRNA) [Ic_S1_P5E.1_K5.1_C5.1_H5.1_A5.1_[T5A]_[T6C]_[A7C]_F5.1_[T8G]_[T9C]_[A10C]_T5.1] | 2070 nM |
| UCUCUUUGUAUCUUAGUCUCUU (ssRNA) [Ic_S1_P5E.1_K5.1_C5.1_H5.1_A5.1_[T6C]_[A7T]_F5.1_[T9A]_[A10G]_T5.1] | 3.71 nM |
| UCUCUUUGUACAGCCAUCUCUU (ssRNA) [Ic_S1_P5E.1_K5.1_C5.1_H5.1_A5.1_[T5C]_[T6A]_[A7G]_F5.1_[T8C]_[T9C]_T5.1] | 316 nM |
| UCUCUUUGUAAUGCAUUCUCUU (ssRNA) [Ic_S1_P5E.1_K5.1_C5.1_H5.1_A5.1_[T5A]_[A7G]_F5.1_[T8C]_[T9A]_[A10T]_T5.1] | 910 nM |
| UCUCUUUGUAGUUUCCUCUCUU (ssRNA) [Ic_S1_P5E.1_K5.1_C5.1_H5.1_A5.1_[T5G]_[A7T]_F5.1_[T9C]_[A10C]_T5.1] | 479 nM |
| UCUCUUUGUAAUCACCUCUCUU (ssRNA) [Ic_S1_P5E.1_K5.1_C5.1_H5.1_A5.1_[T5A]_[A7C]_F5.1_[T8A]_[T9C]_[A10C]_T5.1] | 1200 nM |
| UCUCUUUGUACAUUUCUCUU (ssRNA) [Ic_S1_P3E.1_K3.1_C3.1_H3.1_A3.1_[T5C]_F3.1_[A8T]_T3.1] | 5.42 nM |
| UCUCUUUGUACCUAACUCUCUU (ssRNA) [Ic_S1_P5E.1_K5.1_C5.1_H5.1_A5.1_[T5C]_[T6C]_[A7T]_F5.1_[T8A]_[T9A]_[A10C]_T5.1] | 65.6 nM |
| UCUCUUUGUAUUCCCUUCUCUU (ssRNA) [Ic_S1_P5E.1_K5.1_C5.1_H5.1_A5.1_[A7C]_F5.1_[T8C]_[T9C]_[A10T]_T5.1] | 653 nM |
